“Also recorded” adds a separate entry of the source.
Columns and labels:
K562 cells = assay: Proliferation/viability of transfected K562 cells (trypan blue exclusion); type: cell-based, human; details: for proliferation/viability of K562 cells: trypan blue exclusion
Procedure: K562 cells, human leukemia Bcr-Abl^+ cells (gifted from Kojo Elenitoba-Johnson, University of Michigan), were grown in RPMI 1640 media supplemented with 10% FBS, 1% penicillin-streptomycin-glutamine, and 0.1% gentamicin (complete medium). […] Transfections were carried out two days following cell passaging. Then, 2.0×10^6 cells were collected and transfected with 6 μg pf pEGFP, pEGFP-CC^mut3, pmCherry, or pmCherry-CC^mut3 according to the Cell Line Nucleofector Kit V protocol, program T-013, using the Amaxa Nucleofector II (Lonza Group, Basel, Switzerland).
Cell counts were performed using a standard light microscope.
Two days following cell passaging, 2.0×10^6 cells were collected by centrifugation at 500×g for 10 min for each transfection group. Following cell collection, 6 lig DNA (pEGFP, pEGFP-CC, pEGFP-CCmut3, pEGFP-Helix2WT, pEGFP-Helix2mut3, pmCherry, pmCherry-CCmut3, or pmCherry-CappedHelix2mut3) was transfected into cells according to the Cell Line Nucleofector® Kit V protocol (program T-013) using the Amaxa Nucleofector II (Lonza Group, Basel, Switzerland). Following transfection, the DNA/cell mixture was added to 10 mL Complete RPMI 1640 media and allowed to incubate at 37° C. for 24, 48, or 72 h until analysis, depending on the assay.
Forty-eight or 72 h following transfection, 100 μL of treated K562 or Ba/F3-p210 cells was mixed with 100 μL trypan blue solution (Life Technologies). The numbers of viable cells (those impermeable to the trypan blue dye) from four different quadrants in an INCYTO™ C-CHIP™ Neubauer hemacytometer (VWR International, Radnor, Pa., USA) were counted using a standard light microscope. Quadrant counts were then averaged to obtain the number of viable cells per mL. For experiments using the Helix2mut3 construct, counts were performed on one aliquot per transfection (n=3 in replicate). In experiments involving the CappedHelix2mut3 construct, counts were performed three times using separate 100 pt aliquots from one transfection (n=1 in triplicate).

parental Ba/F3 cells = assay: Colony forming assay of transfected parental Ba/F3 cells; type: cell-based, mouse; details: CCmut3 vs EV
Procedure: Both EGFP and EGFP-CC^mut3 were transfected into separate groups of cells on day 0. One day following transfection, 1.0×10^6 cells per treatment group were collected and re-suspended in 1.0 mL of PBS. Through serial dilutions, 1.0×10^3 cells in IMDM (Isocove's modified Dulbecco's media) with 2% FBS were seeded into methylcellulose medium in the absence of cytokines (MethoCult H4230 for K562 cells and MethoCult M3234 for p210 and p210-T315I cells) or in the presence of cytokines (MethoCult GF M3434 for parental Ba/F3 cells). Ponatinib was then added in the correct molar amounts (0, 100 pM, 1 nM, or 10 nM) to the methylcellulose medium. Colonies formed were counted after 7 days of incubation. All reagents were purchased from Stem Cell Technologies, Vancouver, BC, Canada. Assay was run three separate times (n=3) in duplicate.
Following selection of transfected cells by cell sorting, viable cells were enumerated and seeded into methylcellulose as described previously (Dixon, A. S., et al. (2011) J. Biol. Chem. 286, 27751-27760). Briefly, mCherry-positive Ba/F3 cells were re-suspended in IMDM with 2% FBS (Stem Cell Technologies) at a concentration of 10,000 cells/mL. […] Colonies were counted 7 days later in an area of […] per dish. […]

[1] = test system: CML CD34+ cells expressing BCR-ABL1T315I; assay: Colony forming assay of primary CML CD34+ cells expressing BCR-ABL1T315I (samples R1, R2); type: cell-based, human
Procedure: Mononuclear cells (MNCs) were separated from the peripheral blood of patients with newly diagnosed or therapy-resistant CML with a documented T315I mutation, using Ficoll (Nycomed, Oslo, Norway). Isolation of the CD34^+ fraction was done on an autoMACS Pro (Miltenyi Biotech). […] Cells were infected with lentivirus at a multiplicity of infection (MOI) of 5 for each construct at 24 and 48 hours following harvest (fresh cells) or thaw (frozen cells). Cells were sorted on a BD FACSAria cytometer after 72 h, and GFP-positive cells were returned to culture medium for future experiments. All patients gave their informed consent in accordance with the Declaration of Helsinki, and all studies with human specimens were approved by The University of Utah Institutional Review Board (IRB).
Briefly, lentivirus-infected (GFP^+) cells were isolated by FACS and resuspended in RPMI1640. […] Plates were incubated at 37° C. in a 5% CO2 humidified incubator for 14 days. Colony forming units of granulocyte-macrophage (CFU-GM) were counted on day 14 using an inverted microscope.
All cells were plated with or without the indicated TKI in three or more independent experiments. Plates were incubated at 37° C. in a 5% CO2 humidified incubator. Colonies were counted 7-14 days later in an area of 50 μm2 per dish using an inverted microscope.

[2] = sample R1 (accelerated phase), lentiviral CCmut3 or 10 nM ponatinib vs EV

B1: CCmut3: modified Bcr-Abl coiled-coil domain (residues 1-72) with mutations C38A, K39E, S41R, L45D, E48R, Q60E (protein)
chain: MVDPVGFAEAWKAQFPDSEPPRMELRSVGDIEQELERAEARIRRDEQRVNQERFRMIYLETLLAKEKKSYDR
proliferation/viability of K562 cells (K562 cells; 48 h following transfection, vs EGFP control, n=3): statistically significant decrease in the proliferation of K562 cells | proliferation/viability of K562 cells (K562 cells; 72 h following transfection, vs mCherry control, n=1): potent inhibition of cell proliferation | inhibition of cell proliferation of K562 cells (K562 cells; transfected, vs EGFP and WT control (FIG. 9)): inhibits proliferation; also recorded: significantly greater inhibition | colony formation, in words (parental Ba/F3 cells): not affected; also recorded: no effect on parental Ba/F3 controls | colony formation, in words (parental Ba/F3 cells; listed as CC^mut3): not affected; also recorded: no difference between treatment groups | colony formation, in words [1, 2]: even greater sensitivity to transduction with CCmut3 | reduction of colony formation [1, 2]: 76% | colony formation, in words ([1]; sample R1 (accelerated phase), lentiviral CCmut3 or 10 nM ponatinib vs EV, listed as CC^mut3): reduced colony formation to a similar degree | colony formation, in words ([1]; sample R2 (blast crisis, after ponatinib failure), lentiviral CCmut3 or ponatinib vs EV): only minimal activity | colony formation, in words ([1]; sample R2 (blast crisis, after ponatinib failure), lentiviral CCmut3 or ponatinib vs EV, listed as CC^mut3): insensitive | reduction of colony formation ([1]; sample R2 (blast crisis, after ponatinib failure), lentiviral CCmut3 vs EV): ~25%
